From patent publication US20190330277A1

Legend:
[1] = biological target: bRSV RB94 DSCav1 (bovine respiratory syncytial virus, strain RB94) (UniProt P23728)
[2] = biological target: bRSV RB94 DSCav1 (bovine respiratory syncytial virus, strain RB94) (UniProt P23728); assay: biolayer interferometry Octet binding analysis
[3] = biological target: 391-2 sc9 DS-Cav1 98C-362C; assay: ELISA, variant from culture supernatant on Ni-NTA plate
[4] = biological target: 391-2-DS-Cav1-sc9 100C-362C; assay: as above
[5] = biological target: 391-2-DS-Cav1-sc9 99C-361C; assay: as above
[6] = biological target: 391-2-DS-Cav1-sc9 99C-362C; assay: as above
[7] = biological target: 391-2-DS-Cav1-sc9deleteFS 98C-362C; assay: as above
[8] = biological target: 391-2-DS-Cav1_ sc9_I28C-G464C; assay: as above
[9] = biological target: RB94 sc9 DS-CAV1 N183GC-N428C L373R Long K226L; assay: as above
[10] = biological target: RB94 sc9 DS-CAV1 N183GC-N428C L373R Long; assay: as above
[11] = biological target: RB94 sc9 DS-CAV1 N183GC-N428C L373R; assay: as above
[12] = biological target: 391-2-DS-Cav1-BZGJ9deleteFS; assay: ELISA, variant from culture supernatant on Ni-NTA plate [continued]
[13] = biological target: bRSV RB94 DSCav1 (bovine respiratory syncytial virus, strain RB94) (UniProt P23728); assay: biolayer interferometry (Octet), variant on Ni-NTA tip, Fab in solution

Chain of MPE8 antibody (VH): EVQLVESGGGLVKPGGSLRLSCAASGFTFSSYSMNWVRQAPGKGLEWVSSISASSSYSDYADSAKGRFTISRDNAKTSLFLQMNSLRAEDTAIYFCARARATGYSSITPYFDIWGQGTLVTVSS
Chain of MPE8 antibody (VL): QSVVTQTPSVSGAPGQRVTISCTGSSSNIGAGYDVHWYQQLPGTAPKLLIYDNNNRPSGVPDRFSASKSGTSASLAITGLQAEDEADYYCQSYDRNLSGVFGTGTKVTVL

MPE8 antibody
ELISA binding value [1]: 0.199
response level (biolayer interferometry) [2]: 0.5 nm
ELISA binding value [3]: 0.48
ELISA binding value [4]: 0.131
ELISA binding value [5]: 0.198
ELISA binding value [6]: 0.311
ELISA binding value [7]: 0.448
ELISA binding value [8]: 0.203
ELISA binding value [9]: 0.293
ELISA binding value [10]: 0.335
ELISA binding value [11]: 0.322
ELISA binding value [12]: 0.0675

MPE8 Fab
Kd [13]: 0.2 nM

AM14 Fab
Kd [13]: 4.9 nM

motavizumab Fab
Kd [13]: 0.9 nM
